Data from patent US20230287598A1 (TAURUS BIOSCIENCES, published 2023).
Where a chain is given by its changes, count along the chain named. In names and notes the source's numbering stands.

T1: CXCR1 (UniProt P25024 1-350, limits assumed)
T1 construct: whole, on cells; DiscoveRx PathHunter cell line; any reporter tag on the receptor is not described; also called CXCR1 receptor; CXCR1-U2OS
T1 sequence (looked up): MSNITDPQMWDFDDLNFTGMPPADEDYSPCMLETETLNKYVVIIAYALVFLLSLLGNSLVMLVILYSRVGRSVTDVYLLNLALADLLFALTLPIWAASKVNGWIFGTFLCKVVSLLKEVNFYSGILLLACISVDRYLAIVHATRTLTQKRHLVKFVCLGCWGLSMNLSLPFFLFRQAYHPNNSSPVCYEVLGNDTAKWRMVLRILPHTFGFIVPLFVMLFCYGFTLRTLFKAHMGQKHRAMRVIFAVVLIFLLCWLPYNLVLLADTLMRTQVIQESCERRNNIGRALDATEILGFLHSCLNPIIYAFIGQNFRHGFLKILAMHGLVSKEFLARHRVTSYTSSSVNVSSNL

B1: VH4-34+CDR3-IL8_CDR1 G31D,Y32K_CDR2 E50S / VL1-51 S2A, T5N, P8S, A12G, A13S, P14L IgG (antibody)
VH: QVQLQQWGAGLLKPSETLSLTCAVYGGSFSDKYWSWIRQPPGKGLEWIGSINHSGSTNYNPSLKSRVTISVDTSKNQFSLKLSSVTAADTAVYYCTSVHQETKKYQSPRSAKELRCQCIKTYSKPFHPKFIKELRVIESGPHCANTEIIVKLSDGRELCLDPKENWVQRVVEKFLKRAENSGSGSYTYNYEWHVDVWGQGLLVTVSSAS
light: QAVLNQPSSVSGSLGQKVTISCSGSSSNIGNNYVSWYQQLPGTAPKLLIYDNNKRPSGIPDRFSGSKSGTSATLGITGLQTGDEADYYCASAEDSSSNAVFGSGTTLTVLGQPKAAPSVTLFPPSSEELQANKATLVCLISDFYPGAVTVAWKADSSPVKAGVETTTPSKQSNNKYAASSYLSLTPEQWKSHRSYSCQVTHEGSTVEKTVAPTECS
B2: VH4-34+CDR3-IL8_CDR1 Cow_CDR2 E50S / VL1-51 S2A, T5N, P8S, A12G, A13S, P14L, K46R, L47T, D51G, N52D, N53T IgG (antibody)
VH: B1 VH with A23T, V24A, Y25S, G27F, F29L, Y33A, W34V, S35G
light: B1 light with K46R, L47T, D51G, N52D, N53T
B3: VH4-34+CDR3-IL8_CDR1 Cow_CDR2 Cow / VL1-51 S2A, T5N, P8S, A12G, A13S, P14L, D51G, N52D, N53T IgG (antibody)
VH: QVQLQQWGAGLLKPSETLSLTCTASGFSLSDKAVGWIRQPPGKGLEWLGSIDTGGNTGYNPSLKSRVTISVDTSKNQFSLKLSSVTAADTAVYYCTSVHQETKKYQSPRSAKELRCQCIKTYSKPFHPKFIKELRVIESGPHCANTEIIVKLSDGRELCLDPKENWVQRVVEKFLKRAENSGSGSYTYNYEWHVDVWGQGLLVTVSSAS
light: B1 light with D51G, N52D, N53T
B4: VH4-34+CDR3-IL8_CDR1 G31D,Y32K / VL1-51 S2A, T5N, P8S, A12G, A13S, P14L IgG (antibody)
VH: B1 VH with S50E
light: B1 light
B5: VH4-34+CDR3-IL8_CDR1-Cow_CDR2-Cow / VL1-51 S2A, T5N, P8S, A12G, A13S, P14L IgG (antibody)
VH: B3 VH
light: B1 light
notes: also called BID 36; VH4-34 MutB IL-8 CDR1cow CDR2cow
B6: VH4-34+CDR3-IL8_CDR1 G31D,Y32K / VL1-51 S2A, T5N, P8S, A12G, A13S, P14L, K46R, L47T, D51G, N52D, N53T IgG (antibody)
VH: B1 VH with S50E
light: B1 light with K46R, L47T, D51G, N52D, N53T
notes: nt HC 434, LC 486
B7: VH4-34+CDR3-IL8_CDR1 Cow_CDR2 E50S / VL1-51 S2A, T5N, P8S, A12G, A13S, P14L IgG (antibody)
VH: B3 VH with L48I, D52N, T53H, G54S, N56S, G58N
light: B1 light
B8: VH4-34+CDR3-IL8_CDR1-Cow / VL1-51 S2A, T5N, P8S, A12G, A13S, P14L IgG (antibody)
VH: B3 VH with L48I, S50E, D52N, T53H, G54S, N56S, G58N
light: B1 light
notes: also called BID 34
B9: VH4-34+CDR3-IL8_CDR1-Cow_CDR2-Cow / VL1-51 S2A, T5N, P8S, A12G, A13S, P14L, K46R, L47T, D51G, N52D, N53T IgG (antibody)
VH: B3 VH
light: B1 light with K46R, L47T, D51G, N52D, N53T
notes: also called BID 39; VH4-34 MutD IL-8 CDR1cow CDR2cow
B10: VH4-34+CDR3-IL8_CDR1-G31DY32K_CDR2-E50S / VL1-51 S2A, T5N, P8S, A12G, A13S, P14L, K46R, L47T, D51G, N52D, N53T IgG (antibody)
VH: B1 VH
light: B1 light with K46R, L47T, D51G, N52D, N53T
notes: also called BID 37; VH4-34 MutC IL-8 31D32K50S
B11: VH4-34+CDR3-IL8_CDR1 G31D,Y32K_CDR2 E50S / VL1-51 S2A, T5N, P8S, A12G, A13S, P14L, D51G, N52D, N53T IgG (antibody)
VH: B1 VH
light: B1 light with D51G, N52D, N53T

Columns and labels:
[1] = target: T1, CXCR1; assay: flow cytometry, supernatant at 5 nM IgG
[2] = target: T1, CXCR1; assay: cell-based or functional assay

| Binder | Specific Binding (CXCR1-Cell median AFU / Parental Cell median AFU) [1] | other results |
| --- | --- | --- |
| B1 | 5 |  |
| B2 | 6 |  |
| B3 | 10 |  |
| B4 | 4 |  |
| B5 | 11 |  |
| B6 | 15 |  |
| B7 | 5 |  |
| B8 | 4 |  |
| B9 | 13 | CXCR1 activation, luminescence at 0.4 nM IL-8 domains [2]: 6310; CXCR1 activation, luminescence at 1.6 nM IL-8 domains [2]: 7400; CXCR1 activation, luminescence at 6.25 nM IL-8 domains [2]: 10200; CXCR1 activation, luminescence at 25 nM IL-8 domains [2]: 15400; CXCR1 activation, luminescence at 100 nM IL-8 domains [2]: 21600 |
| B10 | 18 | CXCR1 activation, luminescence at 0.4 nM IL-8 domains [2]: 5420; CXCR1 activation, luminescence at 1.6 nM IL-8 domains [2]: 5710; CXCR1 activation, luminescence at 6.25 nM IL-8 domains [2]: 7160; CXCR1 activation, luminescence at 25 nM IL-8 domains [2]: 11200; CXCR1 activation, luminescence at 100 nM IL-8 domains [2]: 15500 |
| B11 | 17 |  |
